In patent US20200157223A1 one finds toxic side effects caused by NK cells (ADCC on NK92MI-CD16a cells), reduction against the D1^m proteins data, which are given here for three substances.

Sequence of Anti-PD-L1(12A4)-Fc1-D1-D2-Fc2 (bispecific antibody) (chain): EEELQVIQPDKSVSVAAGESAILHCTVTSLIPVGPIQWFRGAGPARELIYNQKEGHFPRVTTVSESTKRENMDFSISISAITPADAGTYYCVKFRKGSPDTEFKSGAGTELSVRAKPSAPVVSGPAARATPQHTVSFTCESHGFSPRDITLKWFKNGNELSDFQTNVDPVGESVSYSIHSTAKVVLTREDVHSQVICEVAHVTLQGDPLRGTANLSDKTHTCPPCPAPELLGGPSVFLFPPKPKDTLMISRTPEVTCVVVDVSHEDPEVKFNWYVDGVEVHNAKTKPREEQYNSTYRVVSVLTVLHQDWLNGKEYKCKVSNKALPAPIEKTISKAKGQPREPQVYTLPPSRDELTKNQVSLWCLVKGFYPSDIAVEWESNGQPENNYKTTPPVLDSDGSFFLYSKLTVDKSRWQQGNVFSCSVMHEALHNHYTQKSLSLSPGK
Sequence of Anti-PD-L1(12A4)-Fc1-D1-Fc2 (bispecific antibody) (chain): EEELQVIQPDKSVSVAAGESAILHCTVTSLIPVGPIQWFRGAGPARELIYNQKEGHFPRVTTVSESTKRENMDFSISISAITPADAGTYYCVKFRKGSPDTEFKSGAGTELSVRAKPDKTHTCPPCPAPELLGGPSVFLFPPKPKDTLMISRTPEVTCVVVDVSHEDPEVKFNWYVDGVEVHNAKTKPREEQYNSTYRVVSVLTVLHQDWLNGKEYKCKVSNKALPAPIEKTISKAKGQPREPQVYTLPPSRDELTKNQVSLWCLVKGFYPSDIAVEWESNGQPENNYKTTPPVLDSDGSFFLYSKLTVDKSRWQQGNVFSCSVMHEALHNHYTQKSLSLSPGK
Sequence of Anti-PD-L1(12A4)-Fc1-D1-D2-D3-Fc2 (bispecific antibody) (chain): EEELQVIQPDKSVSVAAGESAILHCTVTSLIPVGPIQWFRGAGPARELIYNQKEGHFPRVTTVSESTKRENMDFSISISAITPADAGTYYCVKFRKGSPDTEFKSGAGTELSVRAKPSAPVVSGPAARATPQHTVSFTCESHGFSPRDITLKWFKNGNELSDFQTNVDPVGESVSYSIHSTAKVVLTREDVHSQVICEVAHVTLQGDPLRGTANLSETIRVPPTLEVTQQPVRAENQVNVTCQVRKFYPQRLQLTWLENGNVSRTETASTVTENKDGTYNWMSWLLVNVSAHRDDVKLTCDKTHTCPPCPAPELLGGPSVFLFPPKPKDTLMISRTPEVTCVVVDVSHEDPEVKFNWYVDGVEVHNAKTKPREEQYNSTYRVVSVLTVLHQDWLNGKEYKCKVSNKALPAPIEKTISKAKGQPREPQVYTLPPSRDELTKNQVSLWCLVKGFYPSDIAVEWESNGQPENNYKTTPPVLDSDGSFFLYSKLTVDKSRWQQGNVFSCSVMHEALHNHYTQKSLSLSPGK

For the assay, the target named is CD47 on the cell surface (A431, Raji, SKBR-3, NCI-H441, NK92MI-CD16a cells) (human) (UniProt Q08722). Description: cell-based or functional assay.
Consider “Anti-PD-L1(12A4)-Fc1-D1-D2-D3-Fc2 (bispecific antibody)”, for which the toxic side effects caused by NK cells (ADCC on NK92MI-CD16a cells), reduction against the D1^m proteins is > 1000 fold.
Turning to “Anti-PD-L1(12A4)-Fc1-D1-D2-Fc2 (bispecific antibody)”, the toxic side effects caused by NK cells (ADCC on NK92MI-CD16a cells), reduction against the D1^m proteins was > 1000 fold.
As for “Anti-PD-L1(12A4)-Fc1-D1-Fc2 (bispecific antibody)”, the toxic side effects caused by NK cells (ADCC on NK92MI-CD16a cells), reduction against the D1^m proteins was > 1000 fold.
